Measurements taken from patent US20140350088A1.

Molecular target: human C5a receptor (human) (UniProt P21730)
Assay: cell-based or functional assay

human C5a receptor (human), sequence (P21730 whole entry): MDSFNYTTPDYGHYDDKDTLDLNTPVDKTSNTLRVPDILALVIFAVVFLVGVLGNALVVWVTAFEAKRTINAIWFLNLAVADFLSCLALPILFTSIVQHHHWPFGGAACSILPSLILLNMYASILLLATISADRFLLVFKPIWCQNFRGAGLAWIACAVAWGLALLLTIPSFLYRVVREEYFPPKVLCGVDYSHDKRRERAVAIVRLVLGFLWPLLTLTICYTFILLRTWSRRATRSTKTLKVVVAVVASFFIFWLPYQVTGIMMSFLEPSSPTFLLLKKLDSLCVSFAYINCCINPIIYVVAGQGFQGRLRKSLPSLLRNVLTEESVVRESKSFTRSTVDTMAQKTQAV

Substance | half-maximal effective concentration (EC50) in chemotaxis assay of BA/F3/huC5aR cells [nM]
mouse C5a (from UniProt P06684 679-755) (ligand) | 0.3
recombinant human C5a (from UniProt P01031 678-751) (ligand) | 0.1
